Assay results reported in patent US20140030725.

Assays:
[1] = tested on: CBS-HaloTag (CBS-HT) fusion protein (CBS variant 1A5 cloned into pFN19K HaloTag)
[2] = tested on: HQ:CBS:HT (5xHQ tag:CBS variant 1A5:HaloTag), from pFNA:HQ(5x):CBS:HT(7)

Sequence of CBS-HaloTag (CBS-HT) fusion protein (CBS variant 1A5 cloned into pFN19K HaloTag) (chain, as listed by the source mutant): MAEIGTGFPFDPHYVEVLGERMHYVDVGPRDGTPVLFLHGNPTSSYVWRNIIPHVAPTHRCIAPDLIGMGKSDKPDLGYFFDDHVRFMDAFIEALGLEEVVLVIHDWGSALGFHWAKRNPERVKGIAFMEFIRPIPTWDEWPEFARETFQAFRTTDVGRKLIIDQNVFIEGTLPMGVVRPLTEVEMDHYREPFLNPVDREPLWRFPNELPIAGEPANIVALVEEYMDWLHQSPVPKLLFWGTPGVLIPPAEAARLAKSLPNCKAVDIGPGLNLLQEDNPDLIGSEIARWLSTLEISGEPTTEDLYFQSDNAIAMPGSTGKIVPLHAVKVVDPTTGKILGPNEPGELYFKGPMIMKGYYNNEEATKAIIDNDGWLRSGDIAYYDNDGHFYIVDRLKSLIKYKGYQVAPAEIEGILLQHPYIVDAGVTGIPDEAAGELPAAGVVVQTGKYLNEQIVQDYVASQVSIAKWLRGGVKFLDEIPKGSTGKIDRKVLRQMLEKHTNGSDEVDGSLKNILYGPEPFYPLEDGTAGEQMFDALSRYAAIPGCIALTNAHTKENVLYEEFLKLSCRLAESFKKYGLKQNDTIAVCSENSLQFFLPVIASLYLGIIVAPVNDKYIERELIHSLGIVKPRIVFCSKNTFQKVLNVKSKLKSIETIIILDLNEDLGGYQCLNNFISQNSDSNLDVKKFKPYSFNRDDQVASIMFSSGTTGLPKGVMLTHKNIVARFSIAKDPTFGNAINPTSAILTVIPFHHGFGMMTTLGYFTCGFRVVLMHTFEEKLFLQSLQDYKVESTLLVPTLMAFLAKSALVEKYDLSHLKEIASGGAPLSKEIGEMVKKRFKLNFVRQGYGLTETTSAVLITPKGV

In the case of “recombinant caspase-3 (E. coli KRX lysate, pTS1k:caspase-3(T/S))”, the “INDUCED luminescence (5 min; CBS-HT from wheat germ extract + E. coli lysate containing caspase-3)” value [1] is reported as 4,626,173, the “INDUCED luminescence, CBS-HT immobilised on HaloLink RESIN” value [1] is reported as 1,635,259 and the “INDUCED luminescence, CBS-HT immobilised on HaloTag-ligand plate, 0 min” value [1] is reported as 1,226. The “INDUCED luminescence, CBS-HT immobilised on HaloTag-ligand plate, 1 min” value [1] was 1,636, the “INDUCED luminescence, CBS-HT immobilised on HaloTag-ligand plate, 2 min” value [1] was 2,267 and the “INDUCED luminescence, CBS-HT immobilised on HaloTag-ligand plate, 3 min” value [1] was 2,147. For the same substance, the “INDUCED luminescence, CBS-HT immobilised on HaloTag-ligand plate, 4 min” value [1] was 2,297, the “INDUCED luminescence, CBS-HT immobilised on HaloTag-ligand plate, 5 min” value [1] was 2,857 and the “INDUCED luminescence, CBS-HT immobilised on HaloTag-ligand plate, 6 min” value [1] was 3,107. The “INDUCED luminescence, CBS-HT immobilised on HaloTag-ligand plate, 7 min” value [1] was 3,377, the “INDUCED luminescence, CBS-HT immobilised on HaloTag-ligand plate, 8 min” value [1] was 3,037 and the “INDUCED luminescence, CBS-HT immobilised on HaloTag-ligand plate, 9 min” value [1] was 3,667. For the same substance, the “INDUCED luminescence, sample AS (HaloLink resin immobilisation experiment)” value [1] was 5,162,108, the “INDUCED luminescence, sample FT (HaloLink resin immobilisation experiment)” value [1] was 232,117 and the RESPONSE (induced/basal luminescence; 5 min; CBS-HT from wheat germ extract) [1] was 441 fold. For the same substance, the RESPONSE, CBS-HT immobilised on HaloLink RESIN [1] was 146 fold, the RESPONSE, CBS-HT immobilised on HaloTag-ligand plate, 0 min [1] was 19 fold and the RESPONSE, CBS-HT immobilised on HaloTag-ligand plate, 1 min [1] was 102 fold. It also gave an RESPONSE, CBS-HT immobilised on HaloTag-ligand plate, 2 min [1] of 21 fold, an RESPONSE, CBS-HT immobilised on HaloTag-ligand plate, 3 min [1] of 33 fold and an RESPONSE, CBS-HT immobilised on HaloTag-ligand plate, 4 min [1] of 18 fold. It also gave an RESPONSE, CBS-HT immobilised on HaloTag-ligand plate, 5 min [1] of 23 fold, an RESPONSE, CBS-HT immobilised on HaloTag-ligand plate, 6 min [1] of 41 fold and an RESPONSE, CBS-HT immobilised on HaloTag-ligand plate, 7 min [1] of 60 fold. For the same substance, the RESPONSE, CBS-HT immobilised on HaloTag-ligand plate, 8 min [1] was 22 fold, the RESPONSE, CBS-HT immobilised on HaloTag-ligand plate, 9 min [1] was 32 fold and the RESPONSE, sample AS (HaloLink resin immobilisation experiment) [1] was 175 fold. The RESPONSE, sample FT (HaloLink resin immobilisation experiment) [1] was 73 fold, the “INDUCED luminescence, HisLink elution fraction E1” value [2] was 2,951,899 and the “INDUCED luminescence, HisLink elution fraction E2” value [2] was 40,913,496. For the same substance, the “INDUCED luminescence, HisLink elution fraction E3” value [2] was 3,287,059, the “INDUCED luminescence, HisLink elution fraction E4” value [2] was 215,580 and the “INDUCED luminescence, HisLink elution fraction E5” value [2] was 48,068. The “INDUCED luminescence, HisLink purification sample HSS” value [2] was 12,875,742, the “INDUCED luminescence, HisLink purification sample NSM” value [2] was 5,822,003 and the “INDUCED luminescence, HisLink purification sample WASH” value [2] was 3,706,541. The “INDUCED luminescence, purified HQ:CBS:HT immobilised on HaloLink plate” value [2] was 661,597, the RESPONSE, HisLink elution fraction E1 [2] was 699 fold and the RESPONSE, HisLink elution fraction E2 [2] was 212 fold. The RESPONSE, HisLink elution fraction E3 [2] was 178 fold, the RESPONSE, HisLink elution fraction E4 [2] was 191 fold and the RESPONSE, HisLink elution fraction E5 [2] was 178 fold. The RESPONSE, HisLink purification sample HSS [2] was 43 fold, the RESPONSE, HisLink purification sample NSM [2] was 33 fold and the RESPONSE, HisLink purification sample WASH [2] was 479 fold. It also gave an RESPONSE, purified HQ:CBS:HT immobilised on HaloLink plate [2] of 96 fold.
